In paper PMC5299843:

Key:
[1] = molecular target: recombinant LH/CG receptor (UniProt P22888)
[2] = molecular target: recombinant LH/CG receptor (UniProt P22888); remark: listed apart in the source

Chain of UniProt P22888 (P22888 27-699): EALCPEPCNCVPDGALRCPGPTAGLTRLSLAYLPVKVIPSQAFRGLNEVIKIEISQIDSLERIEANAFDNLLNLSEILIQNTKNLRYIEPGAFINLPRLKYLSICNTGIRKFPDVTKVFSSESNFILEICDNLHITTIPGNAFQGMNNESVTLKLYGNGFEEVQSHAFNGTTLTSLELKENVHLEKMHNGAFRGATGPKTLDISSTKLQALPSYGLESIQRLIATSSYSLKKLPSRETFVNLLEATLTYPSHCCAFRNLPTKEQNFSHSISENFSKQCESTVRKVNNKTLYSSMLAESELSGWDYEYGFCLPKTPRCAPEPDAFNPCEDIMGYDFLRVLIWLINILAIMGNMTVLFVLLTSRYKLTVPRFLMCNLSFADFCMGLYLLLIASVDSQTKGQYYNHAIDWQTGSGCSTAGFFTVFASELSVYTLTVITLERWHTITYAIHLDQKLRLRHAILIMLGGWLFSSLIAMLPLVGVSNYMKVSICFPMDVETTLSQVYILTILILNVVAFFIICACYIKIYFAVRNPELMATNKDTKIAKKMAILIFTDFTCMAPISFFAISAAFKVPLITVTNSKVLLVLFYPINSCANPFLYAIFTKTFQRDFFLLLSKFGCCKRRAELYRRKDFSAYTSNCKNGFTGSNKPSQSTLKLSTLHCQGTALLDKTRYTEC

cAMP biosensor signal in COS7-LHCGR cells with 30 pM hCG after heat treatment of the hormone at 65 °C for 30 min; loss in active hormone concentration [1]: 40% | change of FRET signal of the cAMP biosensor TEpacVV in living COS7-LHCGR cells, serial concentrations of hCG over time; concentration giving full receptor activation [2]: 50 pM
Substance: human recombinant chorionic gonadotropin (hCG, Ovitrelle) (from UniProt P01215 25-116; P0DN86 21-165) (ligand)
